The results in this text go back to PMC11108154.

Values joined by “and” are separate entries in the source; they are usually repeats but may differ in a detail not shown here. Identical values can stand only once.

Test [1] deals with AMP-glucagon (generic synthetic glucagon for injection, Amphastar Pharmaceuticals) (UniProt P01275). The test can be described thus: SEC; SEC-HPLC of expired lots (end of shelf life); Phenomenex Yarra 3 um SEC-2000, isocratic 55% 0.1% TFA / 45% acetonitrile, 1.000 mL/min, ambient temperature, UV 214 nm; reconstituted with the included diluent and tested immediately; monomer and dimer told by a calibration curve.

The target in test [2] is ELI-glucagon (Eli Lilly's Glucagon, recombinant, reference listed drug) (UniProt P01275). Described as above.
The target is the same in test [3]. Briefly: SEC; SEC-HPLC of recently released lots; Phenomenex Yarra 3 um SEC-2000, isocratic 55% 0.1% TFA / 45% acetonitrile, 1.000 mL/min, ambient temperature, UV 214 nm; reconstituted with the included diluent and tested immediately; monomer and dimer told by a calibration curve.

“AMP-glucagon (generic synthetic glucagon for injection, Amphastar Pharmaceuticals) (from UniProt P01275 53-81) (peptide)”: in test [1], the % Dimer by SEC-HPLC is 0.062% and 0.08% and 0.115%; the stoichiometry N is 2.

With “ELI-glucagon (Eli Lilly's Glucagon, recombinant, reference listed drug) (from UniProt P01275 53-81) (peptide)”, in test [2], the % Dimer by SEC-HPLC is 0.133% and 0.097% and 0.144%; the stoichiometry N was found to be 2. For the same substance, in test [3], the % Dimer by SEC-HPLC was 0.04% and 0.042% and 0.038%; the stoichiometry N was determined as 2.
